Laboratory results from patent publication US20070053905A1 (Chugai, published 2007).
Changes are numbered by the printed parent chain.

B1: humanized #23-57-137-1 antibody with H chain version "a" and L chain version "s" (antibody, V domains shown)
VH: QVQLVESGGGVVQPGRSLRLSCAASGFTFSSYGMSWVRQAPGKGLEWVATISSGGSYTYYPDSVKGRFTISRDNSKNTLYLQMNSLRAEDTAVYYCARQTTMTYFAYWGQGTLVTVSS
VL: QLVLTQSPSASASLGASVKLTCTLSSQHSTYTIEWYQQQPEKGPKYVMDLKQDGSHSTGDGIPDRFSGSSSGAERYLTISSLQSEDEADYICGVGDTIKEQFVYVFGGGTKLTVLG
notes: Human Cγ1 (IgG1) and human lambda C domain; also called hMBC1HcDNA/pCOS1 + hMBC1Lsλ/pCOS1
B2: antibody in which humanized H chain version "a" was combined with a chimera L chain (antibody, V domains shown)
VH: B1 VH
VL: QLVLTQSSSASFSLGASAKLTCTLSSQHSTYTIEWYQQQPLKPPKYVMDLKQDGSHSTGDGIPDRFSGSSSGADRYLSISNIQPEDEAMYICGVGDTIKEQFVYVFGGGTKVTVLG
notes: H chain has human Cγ1; also called humanized H chain version a + chimera L chain
B3: humanized #23-57-137-1 antibody with H chain version "a" and L chain version "j" (antibody, IgG1, V domains shown)
VH: B1 VH
VL: B1 VL with V47L, I91Y
notes: Human Cγ1 (IgG1) and human lambda C domain; Expressed in COS-7 cells; also called hMBC1HcDNA/pCOS1 + hMBC1Ljλ/pCOS1
B4: humanized #23-57-137-1 antibody with H chain version "a" and L chain version "l" (antibody, IgG1, V domains shown)
VH: B1 VH
VL: B1 VL with I91Y
notes: Human Cγ1 (IgG1) and human lambda C domain; Expressed in COS-7 cells; also called hMBC1HcDNA/pCOS1 + hMBC1Llλ/pCOS1
B5: humanized #23-57-137-1 antibody with H chain version "a" and L chain version "m" (antibody, IgG1, V domains shown)
VH: B1 VH
VL: B1 VL with K45R, V47L, I91Y
notes: Human Cγ1 (IgG1) and human lambda C domain; Expressed in COS-7 cells; also called hMBC1HcDNA/pCOS1 + hMBC1Lmλ/pCOS1
B6: humanized #23-57-137-1 antibody with H chain version "a" and L chain version "o" (antibody, IgG1, V domains shown)
VH: B1 VH
VL: B1 VL with K45R, I91Y
notes: Human Cγ1 (IgG1) and human lambda C domain; Expressed in COS-7 cells; also called hMBC1HcDNA/pCOS1 + hMBC1Loλ/pCOS1
B7: humanized #23-57-137-1 antibody with H chain version "a" and L chain version "q" (antibody, IgG1, V domains shown)
VH: B1 VH
VL: B1 VL with V47L
notes: Human Cγ1 (IgG1) and human lambda C domain; also called hMBC1HcDNA + hMBC1Lqλ; FERM BP-5629 / FERM BP-5630
B8: humanized #23-57-137-1 antibody with H chain version "a" and L chain version "r" (antibody, V domains shown)
VH: B1 VH
VL: B1 VL with K45R, V47L
notes: Human Cγ1 (IgG1) and human lambda C domain; also called hMBC1HcDNA + hMBC1Lrλ
B9: humanized #23-57-137-1 antibody with H chain version "a" and L chain version "t" (antibody, IgG1, V domains shown)
VH: B1 VH
VL: B1 VL with K45R
notes: Human Cγ1 (IgG1) and human lambda C domain; Expressed in COS-7 cells; also called hMBC1HcDNA/pCOS1 + hMBC1Ltλ/pCOS1
B10: chimera #23-57-137-1 antibody with human L chain lambda chain C domain (antibody, IgG1, V domains shown)
VH: EVQLVESGGDLVKPGGSLKLSCAASGFTFSSYGMSWIRQTPDKRLEWVATISSGGSYTYYPDSVKGRFTISRDNAKNTLYLQMSSLKSEDTAMFYCARQTTMTYFAYWGQGTLVTVSA
VL: B2 VL
notes: Expressed in COS-7 cells; also called chimeric antibody; MBC1HcDNA/pCOS1 + MBC1L(λ)/neo
B11: chimera #23-57-137-1 antibody with human L chain kappa chain C domain (antibody, IgG1, V domains shown)
VH: B10 VH
VL: B2 VL
notes: Mouse V domains joined to human Cγ1 (IgG1) and to the human kappa C domain (from plasmid HEF-PM1k-gk); Expressed in COS-7 cells; also called chimeric antibody; MBC1HcDNA/pCOS1 + MBC1L(κ)/neo
B12: mouse FR1, 2/human FR3, 4 hybrid antibody (L chain m/hMBC1Ldλ) (antibody, V domains shown)
VH: B1 VH
VL: QLVLTQSSSASFSLGASAKLTCTLSSQHSTYTIEWYQQQPLKPPKYVMDLKQDGSHSTGDGIPDRFSGSSSGAERYLTISSLQSEDEADYICGVGDTIKEQFVYVFGGGTKLTVL
notes: Human Cγ1 and human lambda C domain; Expressed in COS-7 cells; also called hMBC1HcDNA/pCOS1 + m/hMBC1Ldλ/neo
B13: human FR1/mouse FR2, 3, 4 hybrid antibody (L chain hmmMBC1L(λ)) (antibody, V domains shown)
VH: B1 VH
VL: B12 VL with S8P, F12A, A18V, E74D, T78S, S81N, L82I, S84P, D89M, L112V
notes: Human Cγ1 and human lambda C domain; Expressed in COS-7 cells; also called hMBC1HcDNA/pCOS1 + hmmMBC1L(λ)/neo
B14: mouse FR1, 2/human FR3, 4 hybrid antibody (L chain m/hMBC1Laλ) (antibody, V domains shown)
VH: B1 VH
VL: B12 VL with I91Y
notes: Human Cγ1 and human lambda C domain; Expressed in COS-7 cells; also called hMBC1HcDNA/pCOS1 + m/hMBC1Laλ/neo
B15: mouse monoclonal antibody #23-57-137-1 (antibody, V domains shown)
VH: B10 VH
VL: B2 VL
notes: Mouse hybridoma antibody; The L chain is a mouse lambda chain; the H chain was cloned with a mouse gamma-1 primer (MHC-G1); also called anti-PTHrP MoAb

Biological target: T1, human PTHrP (1-34) (human)
T1 construct: Synthetic peptide (Peninsula / Peptide Research Institute); coated on ELISA plates at 1 ug/ml; also called parathyroid hormone related peptide (1-34)
Assay: ELISA on plate coated with human PTHrP (1-34)
Experimental: The ELISA plate for antigen binding measurement was prepared as follows. Each well of a 96 well plate for ELISA was coated with 100 μl of human PTHrP(1-34) (Peptide Research Institute) adjusted to 1 μg/ml concentration by the coating buffer. […] After the plate was incubated at room temperature and washed with PBS-Tween20, 100 μl of alkaline phosphatase (TAGO) conjugated goat anti-man IgG antibody was added. After the plate was incubated at room temperature and washed with PBS-Tween20, 1 mg/ml of a substrate solution (Sigma104, p-nitrophenylphosphate, SIGMA) was added, and, next, 405 nm absorption was measured with a micro plate reader (Bio Rad).
The ELISA plate for antigen binding measurement was prepared as follows. Each well of a 96 well plate for ELISA was coated with 100 μl of human PTHrP(1-34) adjusted to 1 μg/ml concentration by the coating buffer. After blocking with 200 μl of the dilution buffer, the culture supernatant of the COS-7 cells in which hybrid antibody or humanized antibody was expressed or the purified hybrid antibody or the humanized antibody was stepwise diluted and added to each well. After the plate was incubated at room temperature and washed with PBS-Tween20, 100 μl of alkaline phosphatase (TAGO) conjugated goat anti-man IgG antibody was added. After the plate was incubated at room temperature and washed with PBS-Tween20, 1 mg/ml of a substrate solution (Sigma104, p-nitrophenylphosphate, SIGMA) was added, and 405 nm absorption was then measured on a micro plate reader (Bio Rad).

Binding result, binds:
B1, B2, B3, B4, B5, B6, B7, B8, B9, B10, B11, B12, B13, B14

Biological target: T1, human PTHrP (1-34)
Assay: solid phase RIA of hybridoma culture supernatant
Experimental: Screening of hybridomas was performed by measuring and selecting the existence of a PTHrP recognizing antibody by applying solid phase RIA method to the culture supernatant of the wells where growth was recognized in HAT culture medium.

Binding result, binds:
B15
